Measurements as given in publication PMC3898117 (Biochemical Journal, 2013).

Molecular target: recombinant RNMT (RNA guanine-7 methyltransferase) (UniProt O43148 1-476)
Assay: cell-based or functional assay

Chain of recombinant RNMT (RNA guanine-7 methyltransferase) (O43148 whole entry): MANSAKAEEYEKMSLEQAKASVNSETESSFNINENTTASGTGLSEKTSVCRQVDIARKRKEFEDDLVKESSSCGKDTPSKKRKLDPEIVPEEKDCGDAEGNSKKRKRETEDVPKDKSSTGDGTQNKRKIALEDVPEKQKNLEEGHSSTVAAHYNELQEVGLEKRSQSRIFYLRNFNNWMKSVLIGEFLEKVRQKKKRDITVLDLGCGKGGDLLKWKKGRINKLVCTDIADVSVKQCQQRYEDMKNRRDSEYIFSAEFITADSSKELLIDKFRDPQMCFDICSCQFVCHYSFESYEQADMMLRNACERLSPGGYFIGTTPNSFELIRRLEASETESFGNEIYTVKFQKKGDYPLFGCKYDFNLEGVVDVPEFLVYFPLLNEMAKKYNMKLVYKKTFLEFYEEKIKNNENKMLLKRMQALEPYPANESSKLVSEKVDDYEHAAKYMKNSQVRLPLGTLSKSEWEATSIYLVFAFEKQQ

B1: GST–RAM 1–55 (domain or fragment, human, UniProt Q9BTL3 1-55, looked up)
chain: MTDTAEAVPKFEEMFASRFTENDKEYQEYLKRPPESPPIVEEWNSRAGGNQRNRG
in vitro cap methyltransferase activity of 15 nM RNMT pre-incubated with 15 nM GST–RAM 1–55, compared with GST control: > 5 fold
